The values that follow come from publication PMC3477141, “Repositioning Antimicrobial Agent Pentamidine as a Disruptor of the Lateral Interactions of Transmembrane Domain 5 of EBV Latent Membrane Protein 1” (PLoS ONE, 2012).

Data set [1] concerns the molecule itself. The experiment in a line: Bis-Tris SDS-PAGE; 12% NuPAGE Bis-Tris gel, MES SDS running buffer, room temperature; 200 uM TMD-5 peptide in Laemmli sample buffer overnight, heated at 90 C for 7 min; Coomassie stain; pentamidine to peptide ratios 0 to 20.
Data set [2] deals with the molecule itself. The experiment in a line: coumarin fluorescence dequenching (self-quenching) assay; 100 nM coumarin labeled TMD-5 in 50 mM HEPES pH 7.4 with 150 uM C14 betaine micelles, room temperature overnight; excitation 360 nm, emission 430 nm; with or without 64 uM pentamidine.

Where no end group is shown, it is not given here.

B1: LMP-1 TMD-5 peptide KKKK-TMD-5-KKKK (peptide)
peptide: KKKKWQLLAFFLAFFLDLILLIIALYLKKKK
notes: lysine flank added to increase the solubility of the peptide; transmembrane domain 5 (TMD-5) of latent membrane protein 1 (LMP-1) of Epstein-Barr virus; source: synthetic peptide, purified by reverse phase HPLC
For the protein B1, the “stoichiometry N” value in data set [1] worked out at 3.

B2: coumarin labeled LMP-1 TMD-5 peptide (peptide)
peptide: {7‑hydroxycoumarin‑3‑carboxylic acid}-GGGPGWQLLAFFLAFFLDLILLIIALYLGPGG
notes: flank between the coumarin label and TMD-5; transmembrane domain 5 (TMD-5) of latent membrane protein 1 (LMP-1) of Epstein-Barr virus; C-terminal flank; also called coumarin labeled TMD-5; source: synthetic peptide, labeled with coumarin on the resin, purified by reverse phase HPLC
With B2, the binding result in data set [2] is reported as “binds”.

The stoichiometry N is a count of units in the complex or per binding partner.
